Experiment in all cases: cell-based or functional assay
The target in experiment [1] is HIV envelope protein (env, gp160/gp120) of HIV strain IIIB on infected cells and virus (HIV strain IIIB) (UniProt P04578).
Experiment [2] concerns the target HIV env gp160 stably expressed on mouse melanoma B16 cells (gp160-B16) (HIV (strain not stated)).
Experiment [3] concerns the target ErbB2 receptor on SKBR3 breast cancer cells (UniProt P04626).

The results in this text go back to patent US20080153737A1.

“F105 (antibody Fab fragment against HIV envelope, lacking protamine)”: in experiment [1], the reduction of HIV infection in primary CD4 T cells (p24 Ag ELISA of culture supernatants) came out at 30% and the reduction of HIV replication in infected primary CD4 cells (F105 + gag siRNA condition) fell in the range of 25 to 28%.

With “F105-protamine (Fab fragment of human anti-HIV gp120 antibody F105, heavy chain fused at its C-terminus to full-length protamine) (from UniProt P04553 1-51)”, in experiment [1], the reduction of HIV infection in primary CD4 T cells (p24 Ag ELISA of culture supernatants) amounted to 30%; the reduction of HIV replication in infected primary CD4 cells (F105-P + irrelevant GFP siRNA condition) lay within 25 to 28%; the uptake of FITC-CD4 siRNA by an HIV IIIB-infected Jurkat culture, 24 h (flow cytometry) was 21 % of cells; the uptake of FITC-labeled siRNA by HIV-infected Jurkat cells (flow cytometry) (% of infected cells) turned out to be 40. In addition, the uptake of FITC-siRNA by implanted tumor cells after intravenous injection (fluorescence microscopy) in experiment [2] is 30 % of cells.

Take “single chain ErbB2 antibody protamine fusion protein ML39 ScFv-P (from UniProt P04553 8-29)”: the delivery of FITC-siRNA into cells (flow cytometry) in experiment [3] is 32 % of cells.
